We go through 9 molecules from patent publication US20240092867A1 (UNIVERSITY OF CHICAGO, published 2024).

Assay [1] deals with T1, fibroblast growth factor (FGF)-2 (human, UniProt P09038 143-288).
T1 construct: mature; Purchased in mature form
Nature of the assay: ELISA, peptide coated, GF 1 µg/mL. The method, then:
(§1) (A) The location of laminin-derived peptides in the LG domain of laminin α3, α4, and α5 chains. (B-F) Affinity of heparin and GFs against chemically synthesized peptides derived from the LG domain of laminin α3, α4, and α5 chains. ELISA plates were coated with 10 μg/mL laminin peptide and further incubated with (B) biotinylated heparin, (C) VEGF-A165 and VEGF-A121, (D) PlGF-2 and PlGF-1, (E) PDGF-BB, or (F) FGF-2. Concentrations were 1 μg/mL for GFs and 10 μg/mL for heparin. Bound heparin was detected with streptavidin, and bound GFs with a specific antibody for each GF (n=4, mean±SEM). Statistical analyses were done using the Mann-Whitney U test by comparing the signals obtained from the laminin peptide- and the BSA-coated wells. *p<0.05, **p<0.01.
(§2) ELISA tests were performed as described above. […] 1 μg/mL of BSA served as non-binding protein control. After blocking with 2% BSA PBS-0.05% Tween 20 (PBS-T) solution, 1 μg/mL of the recombinant human proteins (VEGF-A121, VEGF-A165, PlGF-1, PlGF-2, PDGF-BB or FGF-2) or 10 μg/mL of biotinylated heparin (Sigma-Aldrich) were added. Bound GF was detected with biotinylated antibodies for human VEGF, PlGF, PDGF-BB, or FGF-2 (R&D Systems). The antibodies were detected by streptavidin-HRP (R&D Systems).
In general terms: An ELISA detects its analyte on a solid surface through an enzyme-linked reagent.

In assay [2] the target is T2, placental growth factor (PlGF)-2 (human, UniProt P49763-3 19-170).
T2 construct: mature; Purchased in mature form
T2 sequence (looked up): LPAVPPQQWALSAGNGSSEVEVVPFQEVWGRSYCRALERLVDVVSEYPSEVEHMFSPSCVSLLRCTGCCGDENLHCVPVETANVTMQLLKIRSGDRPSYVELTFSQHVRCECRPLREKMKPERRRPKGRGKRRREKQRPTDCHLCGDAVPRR
Nature of the assay: ELISA, peptide coated, GF 1 µg/mL. Here is the method: as §1, §2

For assay [3], the target named is T3, vascular endothelial growth factor (VEGF)-A165 (human, UniProt P15692-4 27-191).
T3 construct: mature; Purchased in mature form, not glycosylated
Nature of the assay: ELISA, peptide coated, GF 1 µg/mL. The method, then: as §1, §2

Assay [4] deals with T4, placental growth factor (PlGF)-1 (human, UniProt P49763-2 19-149).
T4 construct: mature; Purchased in mature form
T4 sequence (looked up): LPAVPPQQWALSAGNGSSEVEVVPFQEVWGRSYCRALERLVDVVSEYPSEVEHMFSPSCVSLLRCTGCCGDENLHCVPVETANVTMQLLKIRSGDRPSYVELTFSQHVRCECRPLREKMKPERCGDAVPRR
Nature of the assay: ELISA, peptide coated. The method, then:
as §1, §2

Assay [5] deals with T5, vascular endothelial growth factor (VEGF)-A121 (human, UniProt P15692-9 27-147).
T5 construct: mature; Purchased in mature form, not glycosylated
T5 sequence (looked up): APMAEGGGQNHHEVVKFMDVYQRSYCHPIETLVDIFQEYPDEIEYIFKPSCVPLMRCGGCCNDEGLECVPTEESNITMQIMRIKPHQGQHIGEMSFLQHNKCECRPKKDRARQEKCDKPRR
Nature of the assay: ELISA, peptide coated. Here is the method: as §1, §2

The target in assay [6] is T6, recombinant human syndecan-4 (human, UniProt P31431 19-145, limits assumed).
T6 construct: Histidine tag of unstated position and length
T6 sequence (looked up): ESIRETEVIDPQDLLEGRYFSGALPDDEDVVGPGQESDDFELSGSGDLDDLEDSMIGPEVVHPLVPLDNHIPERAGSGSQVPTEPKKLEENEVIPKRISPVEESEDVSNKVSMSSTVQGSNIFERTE
Nature of the assay: ELISA, peptide coated, syndecan 1 µg/mL, anti-His detection. Here is the method: (§3) ELISA tests were performed as described above. In brief, ELISA plates were coated with 1 μg/mL laminin peptide (sequences are described in Table 1, chemically synthesized by Genscript) in PBS for 2 hrs at 37° C. 1 μg/mL of BSA served as non-binding protein control. After blocking with 2% BSA PBS-T solution, 1 μg/mL of the recombinant human syndecan-1, syndecan-2, syndecan-3, syndecan-4 (all syndecan proteins are histidine-tagged; SinoBiological) were added. Bound GF was detected with anti-histidine tag antibody (1:1000 dilution, BioLegend).

In assay [7] the target is T7, recombinant human syndecan-2 (human, UniProt P34741 19-144, limits assumed).
T7 construct: Histidine tag of unstated position and length
T7 sequence (P34741 19-144 limits assumed): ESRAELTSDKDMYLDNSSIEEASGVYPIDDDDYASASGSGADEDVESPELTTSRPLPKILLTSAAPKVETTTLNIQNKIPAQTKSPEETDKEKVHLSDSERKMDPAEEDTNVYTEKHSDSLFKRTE
Described as above. The method, then:
as §3

The target in assay [8] is T8, recombinant human syndecan-1 (human, UniProt P18827 23-254, limits assumed).
T8 construct: Histidine tag of unstated position and length
T8 sequence (looked up): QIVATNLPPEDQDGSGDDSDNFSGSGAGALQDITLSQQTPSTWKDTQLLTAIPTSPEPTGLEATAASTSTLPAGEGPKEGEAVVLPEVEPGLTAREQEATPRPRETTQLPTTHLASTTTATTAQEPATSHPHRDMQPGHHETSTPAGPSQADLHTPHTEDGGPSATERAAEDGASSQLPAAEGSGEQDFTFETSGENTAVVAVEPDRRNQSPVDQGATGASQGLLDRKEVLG
The description is as above. The method, then:
as §3

The target of a further assay is T9, human plasma-derived vWF (human, UniProt P04275 764-2813).
T9 construct: mature; also called plasma-derived purified vWF; von Willebrand factor
Nature of the assay: ELISA, GF coated 50 nM, vWF 1 µg/mL. The method, then:
ELISA tests were performed as previously reported1. In brief, ELISA plates (med-binding, Greiner Bio-One) were coated with 50 nM GFs at 37° C. for 2 hrs. […] Then, HRP conjugated goat anti-rabbit antibody (Jackson ImmunoResearch) was added. After 60 min of incubation, 50 μL TMB substrate (Sigma-Aldrich) was added. The reaction was stopped by adding 25 μL of 2N H2SO4. Subsequently, the absorbance at 450 nm was measured and subtracted the absorbance at 570 nm.

The next assay concerns the target T10, laminin-111 (human, UniProt P25391 18-3075; P07942 22-1786; P11047 34-1609).
T10 construct: Full-length recombinant human laminin isoform (BioLamina); Chain composition is read from the isoform name
Nature of the assay: ELISA, GF coated, laminin 10 nM. The method, then: (§4) ELISA tests were performed as previously reported. In brief, ELISA plates (med-binding, Greiner Bio-One) were coated with 50 nM GFs at 37° C. for more than 2 hrs. […] Bound laminin was detected with rabbit anti-human laminin γ1 chain antibody (1:1000 dilution, Assay biotech) or rabbit anti-human laminin α3 chain antibody (1:1000 dilution, Assay biotech). After incubation with biotinylated anti-rabbit antibody for 60 min at room temperature (RT), HRP conjugated streptavidin (Jackson ImmunoResearch) was added. After 60 min of incubation at RT, 50 μL TMB substrate (Sigma-Aldrich) was added. The reactions were stopped by adding 25 μL of 2 N H₂SO₄. Subsequently, the absorbance at 450 nm was measured with a reference of 570 nm.

The target in another assay is T11, laminin-332 (human, UniProt Q16787 28-1724; Q13751 18-1172; Q13753 22-1193, limits assumed).
T11 construct: Full-length recombinant human laminin isoform (BioLamina); chains read from the isoform name
T11 sequence (Q16787 other isoform, or with tags, fused parts or gaps limits assumed, chain 1 of 3): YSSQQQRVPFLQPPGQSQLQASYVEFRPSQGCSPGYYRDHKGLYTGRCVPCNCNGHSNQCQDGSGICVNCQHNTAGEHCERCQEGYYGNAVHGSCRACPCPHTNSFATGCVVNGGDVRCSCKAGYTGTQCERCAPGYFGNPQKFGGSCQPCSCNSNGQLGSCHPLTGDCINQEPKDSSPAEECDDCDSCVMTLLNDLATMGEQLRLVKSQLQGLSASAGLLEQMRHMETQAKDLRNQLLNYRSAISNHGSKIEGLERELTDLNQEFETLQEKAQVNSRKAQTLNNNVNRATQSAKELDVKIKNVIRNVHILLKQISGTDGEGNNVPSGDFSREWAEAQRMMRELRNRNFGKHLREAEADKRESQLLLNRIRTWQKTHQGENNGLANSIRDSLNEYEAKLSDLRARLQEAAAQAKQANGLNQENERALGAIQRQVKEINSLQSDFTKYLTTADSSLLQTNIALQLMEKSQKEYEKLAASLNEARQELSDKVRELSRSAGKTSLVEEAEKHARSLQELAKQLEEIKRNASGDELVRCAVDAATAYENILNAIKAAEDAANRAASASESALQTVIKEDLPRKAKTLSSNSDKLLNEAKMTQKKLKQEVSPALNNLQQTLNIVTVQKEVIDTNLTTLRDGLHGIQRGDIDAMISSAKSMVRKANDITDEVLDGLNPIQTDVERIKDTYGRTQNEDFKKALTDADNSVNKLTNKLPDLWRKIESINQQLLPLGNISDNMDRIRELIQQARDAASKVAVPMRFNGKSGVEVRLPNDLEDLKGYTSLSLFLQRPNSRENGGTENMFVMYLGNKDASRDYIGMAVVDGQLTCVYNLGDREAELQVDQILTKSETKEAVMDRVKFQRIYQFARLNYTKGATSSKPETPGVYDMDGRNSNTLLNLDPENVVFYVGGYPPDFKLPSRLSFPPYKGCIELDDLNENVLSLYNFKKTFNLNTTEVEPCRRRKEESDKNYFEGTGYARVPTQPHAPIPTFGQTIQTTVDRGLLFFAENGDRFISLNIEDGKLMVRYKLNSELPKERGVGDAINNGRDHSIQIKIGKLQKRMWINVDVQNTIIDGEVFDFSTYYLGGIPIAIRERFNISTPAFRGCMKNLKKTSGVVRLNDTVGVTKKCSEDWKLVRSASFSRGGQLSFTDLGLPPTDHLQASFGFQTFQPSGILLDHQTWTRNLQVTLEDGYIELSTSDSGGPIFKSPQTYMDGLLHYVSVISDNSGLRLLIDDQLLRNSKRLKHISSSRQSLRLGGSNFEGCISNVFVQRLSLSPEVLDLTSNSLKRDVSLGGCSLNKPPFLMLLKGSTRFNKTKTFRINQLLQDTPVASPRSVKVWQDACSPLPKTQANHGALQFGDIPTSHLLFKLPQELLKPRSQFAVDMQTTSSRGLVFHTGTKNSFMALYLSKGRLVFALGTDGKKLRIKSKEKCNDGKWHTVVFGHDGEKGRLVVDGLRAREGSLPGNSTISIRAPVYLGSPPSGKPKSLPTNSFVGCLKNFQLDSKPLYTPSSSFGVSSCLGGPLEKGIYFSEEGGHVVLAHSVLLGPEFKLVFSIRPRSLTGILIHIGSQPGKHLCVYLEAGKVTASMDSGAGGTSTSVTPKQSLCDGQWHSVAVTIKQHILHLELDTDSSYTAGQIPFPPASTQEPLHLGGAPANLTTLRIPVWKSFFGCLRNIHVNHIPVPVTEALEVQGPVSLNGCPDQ
T11 sequence (Q13751 18-1172 limits assumed, chain 2 of 3): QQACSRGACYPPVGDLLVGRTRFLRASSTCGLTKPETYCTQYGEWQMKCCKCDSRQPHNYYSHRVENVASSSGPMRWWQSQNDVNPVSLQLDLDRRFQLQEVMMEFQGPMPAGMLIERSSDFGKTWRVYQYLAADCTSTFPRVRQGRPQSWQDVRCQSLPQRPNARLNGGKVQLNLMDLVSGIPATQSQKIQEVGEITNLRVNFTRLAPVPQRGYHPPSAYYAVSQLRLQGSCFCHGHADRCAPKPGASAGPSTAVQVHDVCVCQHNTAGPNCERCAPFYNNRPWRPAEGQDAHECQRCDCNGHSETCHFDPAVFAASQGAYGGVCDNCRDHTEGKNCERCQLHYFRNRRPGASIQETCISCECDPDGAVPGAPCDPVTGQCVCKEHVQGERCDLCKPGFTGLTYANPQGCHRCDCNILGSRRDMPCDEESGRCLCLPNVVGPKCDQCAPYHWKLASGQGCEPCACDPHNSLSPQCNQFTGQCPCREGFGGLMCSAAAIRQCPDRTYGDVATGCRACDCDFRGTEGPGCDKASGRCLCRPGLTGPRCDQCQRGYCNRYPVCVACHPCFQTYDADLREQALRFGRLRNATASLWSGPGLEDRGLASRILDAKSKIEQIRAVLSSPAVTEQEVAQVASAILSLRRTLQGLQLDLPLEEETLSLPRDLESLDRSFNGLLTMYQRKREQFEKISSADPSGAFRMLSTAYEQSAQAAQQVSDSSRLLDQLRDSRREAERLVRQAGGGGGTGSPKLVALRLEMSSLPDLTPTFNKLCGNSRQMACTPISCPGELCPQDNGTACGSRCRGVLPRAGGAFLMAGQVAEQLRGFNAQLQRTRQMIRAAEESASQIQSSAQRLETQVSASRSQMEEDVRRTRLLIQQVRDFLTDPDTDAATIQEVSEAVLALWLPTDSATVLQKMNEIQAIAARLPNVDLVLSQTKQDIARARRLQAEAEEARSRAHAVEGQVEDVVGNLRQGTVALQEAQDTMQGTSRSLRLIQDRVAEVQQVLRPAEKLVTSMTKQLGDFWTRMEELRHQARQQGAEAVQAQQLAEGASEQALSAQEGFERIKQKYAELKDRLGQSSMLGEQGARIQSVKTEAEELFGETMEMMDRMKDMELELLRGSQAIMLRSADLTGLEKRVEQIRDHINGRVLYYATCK
T11 sequence (Q13753 22-1193 limits assumed, chain 3 of 3): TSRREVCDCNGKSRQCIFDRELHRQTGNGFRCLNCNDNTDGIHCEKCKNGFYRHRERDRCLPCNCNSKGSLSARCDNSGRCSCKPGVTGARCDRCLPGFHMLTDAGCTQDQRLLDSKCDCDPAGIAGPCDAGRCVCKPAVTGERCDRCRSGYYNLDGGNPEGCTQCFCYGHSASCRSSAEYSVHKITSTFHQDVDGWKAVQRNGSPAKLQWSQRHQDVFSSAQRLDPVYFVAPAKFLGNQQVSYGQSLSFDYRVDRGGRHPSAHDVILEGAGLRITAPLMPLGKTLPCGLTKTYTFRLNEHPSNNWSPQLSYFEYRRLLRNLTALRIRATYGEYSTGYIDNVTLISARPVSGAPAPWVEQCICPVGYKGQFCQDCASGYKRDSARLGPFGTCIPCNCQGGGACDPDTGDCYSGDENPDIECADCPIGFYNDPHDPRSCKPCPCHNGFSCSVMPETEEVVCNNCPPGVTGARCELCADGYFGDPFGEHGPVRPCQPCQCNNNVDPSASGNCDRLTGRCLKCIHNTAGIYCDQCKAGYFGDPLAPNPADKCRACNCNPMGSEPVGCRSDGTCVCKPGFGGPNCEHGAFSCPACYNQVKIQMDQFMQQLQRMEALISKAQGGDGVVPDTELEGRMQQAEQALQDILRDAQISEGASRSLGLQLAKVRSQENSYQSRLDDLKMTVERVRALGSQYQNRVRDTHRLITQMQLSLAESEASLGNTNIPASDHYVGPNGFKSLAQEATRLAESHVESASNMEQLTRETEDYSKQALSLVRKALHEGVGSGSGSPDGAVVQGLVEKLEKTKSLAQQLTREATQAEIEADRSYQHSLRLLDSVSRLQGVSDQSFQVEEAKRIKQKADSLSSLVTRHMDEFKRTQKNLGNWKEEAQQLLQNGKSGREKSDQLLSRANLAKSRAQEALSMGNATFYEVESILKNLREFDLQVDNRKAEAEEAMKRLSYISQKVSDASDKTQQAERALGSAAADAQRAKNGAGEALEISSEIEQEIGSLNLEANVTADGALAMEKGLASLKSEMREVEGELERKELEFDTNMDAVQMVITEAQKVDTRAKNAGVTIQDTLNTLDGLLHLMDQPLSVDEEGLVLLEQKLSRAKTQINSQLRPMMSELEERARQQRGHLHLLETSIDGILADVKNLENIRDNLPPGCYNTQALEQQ
Nature of the assay: ELISA, GF coated, laminin 10 nM. Here is the method:
as §4

For a further assay, the target named is T12, laminin-421 (human, UniProt Q16363 25-1823; P55268 33-1798; P11047 34-1609).
T12 construct: Full-length recombinant human laminin isoform (BioLamina); chains read from the isoform name
Nature of the assay: ELISA, GF coated, laminin 10 nM. Here is the method: as §4

The next assay has as its target T13, laminin-211 (human, UniProt P24043 23-3122; P07942 22-1786; P11047 34-1609).
T13 construct: Full-length recombinant human laminin isoform (BioLamina); chains read from the isoform name
Nature of the assay: ELISA, GF coated, laminin 10 nM. Here is the method:
as §4

Another assay concerns the target T14, laminin-511 (human, UniProt O15230 36-3695; P07942 22-1786; P11047 34-1609).
T14 construct: Full-length recombinant human laminin isoform (BioLamina); chains read from the isoform name
Nature of the assay: ELISA, GF coated, laminin 10 nM. Here is the method: as §4

Another assay deals with T15, laminin-411 (human, UniProt Q16363 25-1823; P07942 22-1786; P11047 34-1609).
T15 construct: Full-length recombinant human laminin isoform (BioLamina); chains read from the isoform name
Nature of the assay: ELISA, GF coated, laminin 10 nM. Here is the method:
as §4

In a further assay the target is T16, laminin-521 (human, UniProt O15230 36-3695; P55268 33-1798; P11047 34-1609).
T16 construct: Full-length recombinant human laminin isoform (BioLamina); chains read from the isoform name
Nature of the assay: ELISA, GF coated, laminin 10 nM. The method, then: as §4

The target of assay [9] is T1, fibroblast growth factor (FGF)-2. Nature of the assay: ELISA, HBD peptides.
The target in assay [10] is T3, vascular endothelial growth factor …. Nature of the assay: ELISA, HBD peptides.
Target sequence in this assay (P15692 other isoform, or with tags, fused parts or gaps limits assumed): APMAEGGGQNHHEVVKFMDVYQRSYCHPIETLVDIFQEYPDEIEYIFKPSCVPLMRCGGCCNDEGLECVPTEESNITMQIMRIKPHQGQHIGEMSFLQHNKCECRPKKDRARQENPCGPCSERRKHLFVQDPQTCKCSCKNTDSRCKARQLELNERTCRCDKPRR
Assay [11] has as its target T17, platelet-derived growth factor (PDGF)-BB (human, UniProt P01127 82-190).
T17 construct: mature; Purchased in mature form
Nature of the assay: ELISA, HBD peptides.

T1 sequence (P09038 143-288): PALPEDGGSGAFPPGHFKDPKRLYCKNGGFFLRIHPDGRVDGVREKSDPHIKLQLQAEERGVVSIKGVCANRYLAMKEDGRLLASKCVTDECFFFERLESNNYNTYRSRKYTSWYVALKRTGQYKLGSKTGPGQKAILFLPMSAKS
T17 sequence (P01127 82-190): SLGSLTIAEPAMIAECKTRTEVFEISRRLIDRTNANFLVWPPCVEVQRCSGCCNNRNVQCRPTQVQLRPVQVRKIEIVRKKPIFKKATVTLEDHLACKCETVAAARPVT

As to TLFLAHGRLVYMFNVGHKKLKIR (Chemically synthesized (Genscript)) [laminin α4 1521-1543 peptide (LG4)], the binding result in [1] was “binds”; in assay [2], “binds”; in assay [3], “binds”; in assay [4], “no binding (tested: 1 µg/mL)”; in assay [5], “no binding (tested: 1 µg/mL)”; in assay [6], “binds”. The binding result in [7] and in assay [8] was “binds” in each case.

B1: bone morphogenetic protein (BMP)-7 (ligand, UniProt P18075 293-431, looked up)
chain: STGSKQRSQNRSKTPKNQEALRMANVAENSSSDQRQACKKHELYVSFRDLGWQDWIIAPEGYAAYYCEGECAFPLNSYMNATNHAIVQTLVHFINPETVPKPCCAPTQLNAISVLYFDDSSNVILKKYRNMVVRACGCH
notes: mature; Purchased in mature form
For the molecule B1, the binding result with human plasma-derived vWF is “no binding”; with laminin-111, “no binding (tested: A450 0.1)”; with laminin-332 it was “no binding (tested: A450 0.1)”; in the assay with laminin-421, “no binding (tested: A450 0.1)”; with laminin-211, “no binding (tested: A450 0.1)”; with laminin-511 it was “no binding (tested: A450 0.1)”. The binding result with laminin-411 and in the assay with laminin-521 was “no binding (tested: A450 0.1)” in each case.

B2: fibroblast growth factor (FGF)-6 (ligand, UniProt P10767 38-208, looked up)
chain: SPAGTRANNTLLDSRGWGTLLSRSRAGLAGEIAGVNWESGYLVGIKRQRRLYCNVGIGFHLQVLPDGRISGTHEENPYSLLEISTVERGVVSLFGVRSALFVAMNSKGRLYATPSFQEECKFRETLLPNNYNAYESDLYQGTYIALSKYGRVKRGSKVSPIMTVTHFLPRI
notes: as for B1
As for B2, the binding result with human plasma-derived vWF is listed as “no binding”; with laminin-111, “no binding (tested: A450 0.1)”; in the assay with laminin-332, “no binding (tested: A450 0.1)”; with laminin-421, “no binding (tested: A450 0.1)”; with laminin-211 it was “no binding (tested: A450 0.1)”; with laminin-511, “no binding (tested: A450 0.1)”. Moreover, the binding result in the assay with laminin-411 and with laminin-521 was “no binding (tested: A450 0.1)” throughout.

B3: vWF A1 HBD R1341L (peptide)
peptide: YIGLKDRKRPSELLRIASQVKYA
notes: The entry already carries the substitution
Consider B3, for which the binding result in assay [9], in assay [10] and in [11] was “no binding” throughout.

B4: vWF A1 HBD R1341W (peptide)
peptide: YIGLKDRKRPSELWRIASQVKYA
notes: as for B3
B4: the binding result in [9], in assay [10] and in assay [11] was “no binding” in each case.

B5: vWF A1 HBD R1341Q (peptide)
peptide: YIGLKDRKRPSELQRIASQVKYA
notes: as for B3
As to B5, the binding result in assay [9], in assay [10] and in assay [11] was “no binding” throughout.

B6: vWF A1 HBD R1341S (peptide)
peptide: YIGLKDRKRPSELSRIASQVKYA
notes: as for B3
In the case of B6, the binding result in [9], in assay [10] and in assay [11] was “no binding” throughout.

B7: vWF A1 HBD R1341P (peptide)
peptide: YIGLKDRKRPSELPRIASQVKYA
notes: as for B3
Consider B7, for which the binding result in assay [9], in assay [10] and in assay [11] was “no binding” each time.

B8: bone morphogenetic protein (BMP)-4 (ligand, UniProt P12644 293-408, looked up)
chain: SPKHHSQRARKKNKNCRRHSLYVDFSDVGWNDWIVAPPGYQAFYCHGDCPFPLADHLNSTNHAIVQTLVNSVNSSIPKACCVPTELSAISMLYLDEYDKVVLKNYQEMVVEGCGCR
notes: as for B1
Consider B8, for which the binding result in the assay with laminin-111, with laminin-332, in the assay with laminin-421, with laminin-211, with laminin-511 and in the assay with laminin-411 was “no binding (tested: A450 0.1)” throughout. The binding result in the assay with laminin-521 is given as “no binding (tested: A450 0.1)”.
